Assay results reported in article PMC7710018, “Restoration of motor learning in a mouse model of Rett syndrome following long-term treatment with a novel small-molecule activator of TrkB” (Disease Models & Mechanisms, 2020).

Assays:
3T3-TrkA cells = experiment: NIH-3T3 cell survival (ViaLight); type: cell-based, mouse; conditions: serum-free medium, 72-96 h, PTX-BD4-3 1000 nM
Description: (§1) Fig. 2. PTX-BD4-3 promotes cell survival preferentially through TrkB. (A-D) Neurotrophin receptor-expressing NIH-3T3 cells were incubated in culture medium (CM) alone or in medium plus either the indicated neurotrophins (BDNF, NGF, NT-3) or PTX-BD4-3 or its parent compound LM22A-4 for 72-96 h, after which survival was measured using the ViaLight assay. […] Scale bar: 10 μm. (B) Survival dose-response curves for PTX-BD4-3 and LM22A-4 in 3T3-TrkB cells. ^§P≤0.001 compared to CM alone. (C) Representative images of 3T3-TrkA, 3T3-TrkC and 3T3-p75 cells grown in the presence of CM alone, CM+neurotrophin or CM+PTX-BD4-3. Scale bar: 10 μm. NGF, NT-3 and BDNF served as positive controls for 3T3-TrkA, 3T3-TrkC and 3T3-p75 cells, respectively. (D) PTX-BD4-3 (1000 nM) had no effect on survival of 3T3-TrkA, 3T3-TrkC or 3T3-p75 cells compared to medium alone. *P≤0.05, ***P≤0.001 compared to CM alone. For each determination in B and D, n=10-32 wells derived from four to five independent experiments. Statistical significance was determined by one-way ANOVA with Dunnett's post hoc multiple comparison test. (E,F) […] protein was extracted from human cementoblast-like cell (HCEM) cultures treated with either culture medium alone, BDNF, LM22A-4 or PTX-BD4-3, immunoprecipitated with anti-TrkB antibody and then probed sequentially on western blots with anti-Shc and anti-TrkB antibody. The ratio of Shc to TrkB in treated cultures was normalized and compared to control (CM alone) using Kruskal-Wallis ANOVA followed by Dunn's multiple comparisons test (*P≤0.05, ^§P≤0.001). n=13 independent experiments, and each protein sample was run on duplicate western blots and the normalized values averaged. RLUs, relative light units.
(§2) Mouse NIH-3T3 cells expressing TrkA (NIH-3T3-TrkA) were provided by Dr William Mobley (University of California at San Diego, San Diego, CA, USA), and NIH-3T3 cells expressing TrkB (NIH-3T3-TrkB) or TrkC (NIH-3T3-TrkC) were provided by Dr David Kaplan (University of Toronto, Toronto, ON, Canada). Cells were propagated in Dulbecco's modified Eagle medium (DMEM) supplemented with 10% fetal bovine serum (FBS; Invitrogen) and 200-400 µg/ml Geneticin. Cells were seeded into 24-well plates (30,000 cells/well) and cultured in medium consisting of 50% PBS and 50% DMEM without supplements. Following exposure to BDNF (20 ng/ml, 0.7 nM) or 10-1000 nM LM22A-4 or PTX-BD4-3 for 72-96 h, cells were suspended in 50 µl lysis buffer, transferred to white, opaque 96-well culture plates and survival was measured using the ViaLight Assay (Lonza Group, Rockland, ME, USA).

3T3-TrkC cells = experiment: NIH-3T3 cell survival (ViaLight); type: cell-based, mouse; conditions: serum-free medium, 72-96 h, PTX-BD4-3 1000 nM
Description: as §1, §2

3T3-p75 cells = experiment: NIH-3T3 cell survival (ViaLight); type: cell-based, mouse; conditions: serum-free medium, 72-96 h, PTX-BD4-3 1000 nM
Description: as §1, §2

3T3-TrkB cells = experiment: NIH-3T3 cell survival (ViaLight); type: cell-based, mouse; conditions: serum-free medium, 72-96 h, ViaLight; compounds 10-1000 nM dose-response, BDNF 20 ng/ml
Description: as §1, §2

[1] = test system: 3T3 parent line, which does not express Trk receptors; experiment: NIH-3T3 cell survival; type: cell-based, mouse; conditions: serum-free medium
[2] = test system: E16 mouse hippocampal neurons; experiment: Hippocampal neuron survival (ViaLight assay and Tuj1-positive cell counts); type: cell-based; conditions: compounds 1000 nM, BDNF 20 ng/ml; vs control antibody
Description: To further confirm that PTX-BD4-3 promotes biologically relevant activity through TrkB, we examined the effect of PTX-BD4-3 on survival of cultured hippocampal neurons, using two different methods (Fig. 3A-C). […] It would be expected that although there is a correlation between survival status and mitochondrial metabolic status, one could have some degree of variability in metabolic function for a given level of cell survival. […] Because the plateau effect of PTX-BD4-3 on survival was observed between 500 nM and 1000 nM, we chose 1000 nM as a standard concentration for subsequent mechanistic studies.
Fig. 3. […] (A) Fluorescence photomicrographs (original magnification, ×40) of Tuj1-immunostained E16 mouse hippocampal neuronal cultures treated with culture medium (CM) alone, BDNF, LM22A-4 or PTX-BD4-3 for 48 h. Scale bar: 10 μm. (B) Neuron survival dose-response curves for LM22A-4 and PTX-BD4-3 were generated using the ViaLight assay; data were normalized to survival achieved with 20 ng/ml (∼0.7 nM) BDNF and compared with wells receiving culture medium medium (CM) alone. n=10-32 wells per group derived from four to five independent experiments. (C) Survival analysis of hippocampal neurons treated with either 20 ng/ml BDNF, 500 nM or 1000 nM LM22A-4 or 500 nM or 1000 nM PTX-BD4-3 for 48 h. Tuj1-positive cells counts were normalized to the survival achieved with BDNF and compared with wells treated with […]. n=32-40 wells per group derived from six independent experiments. Statistical significance in B and C was determined by one-way ANOVA with Dunnett's post hoc multiple comparison tests. *P≤0.05, ^§P≤0.001 compared to control (CM). (D) Survival of hippocampal neurons treated with CM, 20ng/ml BDNF (B), 1000 nM LM22A-4 or 1000 nM PTX-BD4-3 with or without anti-TrkB antibody (Bab) or non-immune serum (non). n=37-42 wells per group derived from five independent experiments. *P≤0.05, **P≤0.01, ***P≤0.001 (non vs Bab), Mann-Whitney test; *P≤0.05, ^ψP≤0.01, ^§P≤0.001 (compared to CM), one-way ANOVA with Dunnett's post hoc multiple comparison test.
Hippocampal neuron cultures were prepared from E16 CF1 mouse fetuses as described previously ([Yang et al., 2006]). Under the low-density conditions used here, neuronal survival is dependent, in part, on addition of exogenous neurotrophins ([Yang et al., 2008]; [Walter et al., 2011]). LM22A-4 and PTX-BD4-3 were dissolved in water at a stock concentration of 10 mM prior to dilution (1:10,000) in culture medium. Cell survival following a 48-h exposure to BDNF, LM22A-4 or PTX-BD4-3 was quantified by either counting β-tubulin III-positive cell bodies ([Massa et al., 2006]; [Walter et al., 2011]) or by the ViaLight Assay described above.

TrkB = experiment: Shc adaptor protein recruitment to TrkB in HCEMs (IP/western blot); type: cell-based, human; conditions: 1 h, compounds 1000 nM, BDNF 0.7 nM
Description: Fig. 2. […] Scale bar: 10 μm. […] Scale bar: 10 μm.

Molecule: NGF: neurotrophin, cognate ligand and positive control for 3T3-TrkA cells
- survival of 3T3-TrkA cells (3T3-TrkA cells): supported survival

B1: NT-3: neurotrophin, cognate ligand and positive control for 3T3-TrkC cells (protein, UniProt P20783 139-257, looked up)
Neurotrophin-3: YAEHKSHRGEYSVCDSESLWVTDKSSAIDIRGHQVTVLGEIKTGNSPVKQYFYETRCKEARPVKNGCRGIDDKHWNSQCKTSQTYVRALTSENNKLVGWRWIRIDTSCVCALSRKIGRT
- survival of 3T3-TrkC cells (3T3-TrkC cells): supported survival

B2: BDNF: Recombinant brain-derived neurotrophic factor, cognate ligand of TrkB; positive control (protein, UniProt P23560 19-247, looked up)
Neurotrophic factor BDNF …: APMKEANIRGQGGLAYPGVRTHGTLESVNGPKAGSRGLTSLADTFEHVIEELLDEDQKVRPNEENNKDADLYTSRVMLSSQVPLEPPLLFLLEEYKNYLDAANMSMRVRRHSDPARRGELSVCDSISEWVTAADKKTAVDMSGGTVTVLEKVPVSKGQLKQYFYETKCNPMGYTKEGCRGIDKRHWNSQCRTTQSYVRALTMDSKKRIGWRFIRIDTSCVCTLTIKRGR
- survival of 3T3-p75 cells (3T3-p75 cells): respond
- survival of 3T3-TrkB cells (3T3-TrkB cells): supported survival
- survival of the 3T3 parent line [1]: did not support survival
- neurotrophic activity in the presence of function-blocking anti-TrkB^ECD antibody [2]: reduction
- Shc recruitment to TrkB (ratio of Shc to TrkB) (TrkB): promoted Shc recruitment to TrkB
